In patent US10941182 (Amgen, dated 2021):
Starred links: 1 amine or outer side, 2 acyl side, 3 side chain; linkers in the order of their positions; H or OH if unused. Non-standard residues stand in square brackets, D forms with d. Primed or numbered codes have the meaning given here. *: point of attachment. AC4Abu = α-carboxy-4-aminobutyric acid, O=C(C(CCN[*:1])C(=O)[*:3])[*:2]; Oic = O=C(O)[C@@H]1C[C@@H]2CCCC[C@@H]2N1; Phe(4-Cl) = N[C@@H](Cc1ccc(Cl)cc1)C(=O)O; γGlu = O=C(O)[C@H](CCC(=O)[*:2])N[*:1]; NMeR = CN[C@@H](CCCNC(=N)N)C(=O)O; Tridecanoyl = CCCCCCCCCCCCC(=O)*; hArg = N=C(N)NCCCC[C@H](N)C(=O)O; Cha = N[C@@H](CC1CCCCC1)C(=O)O; αMeL = CC(C)C[C@](C)(N)C(=O)O; αMeP = C[C@@]1(C(=O)O)CCCN1; β3hP = O=C(O)C[C@@H]1CCCN1; Nle = CCCC[C@H](N)C(=O)O; Pip′ = not defined here; AEEA = NCCOCCOCC(=O)O; Aib = CC(C)(N)C(=O)O; BLeu = β-leucine

T1: human APJ receptor (human, UniProt P35414 1-380)
T1 sequence (looked up): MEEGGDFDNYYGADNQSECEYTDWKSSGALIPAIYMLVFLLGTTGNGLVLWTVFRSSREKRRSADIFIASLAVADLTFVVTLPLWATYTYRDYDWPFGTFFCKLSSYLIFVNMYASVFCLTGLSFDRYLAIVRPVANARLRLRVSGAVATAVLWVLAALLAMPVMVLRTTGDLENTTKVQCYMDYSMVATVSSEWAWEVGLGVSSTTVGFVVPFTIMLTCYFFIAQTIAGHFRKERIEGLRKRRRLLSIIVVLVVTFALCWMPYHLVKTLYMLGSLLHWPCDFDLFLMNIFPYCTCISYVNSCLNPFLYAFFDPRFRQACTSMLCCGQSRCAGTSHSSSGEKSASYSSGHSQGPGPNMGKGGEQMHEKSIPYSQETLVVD

T2: rat APJ receptor (rat, UniProt Q9JHG3 1-377)
T2 sequence (looked up): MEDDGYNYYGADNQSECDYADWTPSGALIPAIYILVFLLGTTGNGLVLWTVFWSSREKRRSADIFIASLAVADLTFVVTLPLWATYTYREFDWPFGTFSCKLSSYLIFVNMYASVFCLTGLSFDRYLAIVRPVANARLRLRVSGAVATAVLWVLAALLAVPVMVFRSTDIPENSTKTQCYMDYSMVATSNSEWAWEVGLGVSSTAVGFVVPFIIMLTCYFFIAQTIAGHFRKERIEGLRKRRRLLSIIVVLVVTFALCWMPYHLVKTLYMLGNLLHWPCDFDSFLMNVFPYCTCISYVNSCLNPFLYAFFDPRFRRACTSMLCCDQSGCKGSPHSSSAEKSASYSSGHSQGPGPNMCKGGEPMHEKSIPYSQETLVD

B1: Apelin polypeptide SEQ ID NO: 525 (peptide)
peptide: Tridecanoyl-[γGlu][AEEA][AEEA][dQ][dE]P[NMeR][Cha]SHKG[Oic][Nle][Aib][Phe(4-Cl)]-OH
SMILES: CCCCCCCCCCCCC(=O)N[C@@H](CCC(=O)NCCOCCOCC(=O)NCCOCCOCC(=O)N[C@H](CCC(N)=O)C(=O)N[C@H](CCC(=O)O)C(=O)N1CCC[C@H]1C(=O)N(C)[C@@H](CCCNC(=N)N)C(=O)N[C@@H](CC1CCCCC1)C(=O)N[C@@H](CO)C(=O)N[C@@H](Cc1c[nH]cn1)C(=O)N[C@@H](CCCCN)C(=O)NCC(=O)N1[C@H](C(=O)N[C@@H](CCCC)C(=O)NC(C)(C)C(=O)N[C@@H](Cc2ccc(Cl)cc2)C(=O)O)C[C@@H]2CCCC[C@@H]21)C(=O)O
B2: Apelin polypeptide SEQ ID NO: 520 (peptide)
peptide: Tridecanoyl-[γGlu][AEEA][AEEA]QP[NMeR][Cha]SHKG[Oic][Nle][Aib][Phe(4-Cl)]-OH
SMILES: CCCCCCCCCCCCC(=O)N[C@@H](CCC(=O)NCCOCCOCC(=O)NCCOCCOCC(=O)N[C@@H](CCC(N)=O)C(=O)N1CCC[C@H]1C(=O)N(C)[C@@H](CCCNC(=N)N)C(=O)N[C@@H](CC1CCCCC1)C(=O)N[C@@H](CO)C(=O)N[C@@H](Cc1c[nH]cn1)C(=O)N[C@@H](CCCCN)C(=O)NCC(=O)N1[C@H](C(=O)N[C@@H](CCCC)C(=O)NC(C)(C)C(=O)N[C@@H](Cc2ccc(Cl)cc2)C(=O)O)C[C@@H]2CCCC[C@@H]21)C(=O)O
B3: Apelin polypeptide SEQ ID NO: 396 (peptide)
peptide: Tridecanoyl-[AC4Abu][AEEA][AEEA]QR[NMeR][αMeL]SHKG[Oic][Nle]P[Phe(4-Cl)]-OH
SMILES: CCCCCCCCCCCCC(=O)NCCC(C(=O)O)C(=O)NCCOCCOCC(=O)NCCOCCOCC(=O)N[C@@H](CCC(N)=O)C(=O)N[C@@H](CCCNC(=N)N)C(=O)N(C)[C@@H](CCCNC(=N)N)C(=O)N[C@@](C)(CC(C)C)C(=O)N[C@@H](CO)C(=O)N[C@@H](Cc1c[nH]cn1)C(=O)N[C@@H](CCCCN)C(=O)NCC(=O)N1[C@H](C(=O)N[C@@H](CCCC)C(=O)N2CCC[C@H]2C(=O)N[C@@H](Cc2ccc(Cl)cc2)C(=O)O)C[C@@H]2CCCC[C@@H]21
B4: Apelin polypeptide SEQ ID NO: 475 (peptide)
peptide: Tridecanoyl-[γGlu][AEEA][AEEA]QEP[NMeR]LSHKGP[Nle]P[Phe(4-Cl)]-OH
SMILES: CCCCCCCCCCCCC(=O)N[C@@H](CCC(=O)NCCOCCOCC(=O)NCCOCCOCC(=O)N[C@@H](CCC(N)=O)C(=O)N[C@@H](CCC(=O)O)C(=O)N1CCC[C@H]1C(=O)N(C)[C@@H](CCCNC(=N)N)C(=O)N[C@@H](CC(C)C)C(=O)N[C@@H](CO)C(=O)N[C@@H](Cc1c[nH]cn1)C(=O)N[C@@H](CCCCN)C(=O)NCC(=O)N1CCC[C@H]1C(=O)N[C@@H](CCCC)C(=O)N1CCC[C@H]1C(=O)N[C@@H](Cc1ccc(Cl)cc1)C(=O)O)C(=O)O
B5: Apelin polypeptide SEQ ID NO: 524 (peptide)
peptide: Tridecanoyl-[γGlu][AEEA][AEEA][dQ]EP[NMeR][Cha]SHKG[Oic][Nle][Aib][Phe(4-Cl)]-OH
SMILES: CCCCCCCCCCCCC(=O)N[C@@H](CCC(=O)NCCOCCOCC(=O)NCCOCCOCC(=O)N[C@H](CCC(N)=O)C(=O)N[C@@H](CCC(=O)O)C(=O)N1CCC[C@H]1C(=O)N(C)[C@@H](CCCNC(=N)N)C(=O)N[C@@H](CC1CCCCC1)C(=O)N[C@@H](CO)C(=O)N[C@@H](Cc1c[nH]cn1)C(=O)N[C@@H](CCCCN)C(=O)NCC(=O)N1[C@H](C(=O)N[C@@H](CCCC)C(=O)NC(C)(C)C(=O)N[C@@H](Cc2ccc(Cl)cc2)C(=O)O)C[C@@H]2CCCC[C@@H]21)C(=O)O
B6: Apelin polypeptide SEQ ID NO: 516 (peptide)
peptide: Tridecanoyl-[γGlu][AEEA][AEEA][dQ]R[β3hP][NMeR][Cha]SHKG[Oic][Nle][Aib][Phe(4-Cl)]-OH
SMILES: CCCCCCCCCCCCC(=O)N[C@@H](CCC(=O)NCCOCCOCC(=O)NCCOCCOCC(=O)N[C@H](CCC(N)=O)C(=O)N[C@@H](CCCNC(=N)N)C(=O)N1CCC[C@H]1CC(=O)N(C)[C@@H](CCCNC(=N)N)C(=O)N[C@@H](CC1CCCCC1)C(=O)N[C@@H](CO)C(=O)N[C@@H](Cc1c[nH]cn1)C(=O)N[C@@H](CCCCN)C(=O)NCC(=O)N1[C@H](C(=O)N[C@@H](CCCC)C(=O)NC(C)(C)C(=O)N[C@@H](Cc2ccc(Cl)cc2)C(=O)O)C[C@@H]2CCCC[C@@H]21)C(=O)O
B7: Apelin polypeptide SEQ ID NO: 503 (peptide)
peptide: XXXQRPRLSHKGXXPF
modifications: {TDA}[AC4Abu][Aeea][Aeea]qR[aMePro][hArg][BLeu]SHKG[Pip][Nle][aMePro][4-Cl-F]{COOH}
B8: Apelin polypeptide SEQ ID NO: 553 (peptide)
peptide: Tridecanoyl-[γGlu][AEEA][AEEA][dQ]R[β3hP][NMeR][αMeL]SHKG[Oic][Nle][αMeP][Phe(4-Cl)]-OH
SMILES: CCCCCCCCCCCCC(=O)N[C@@H](CCC(=O)NCCOCCOCC(=O)NCCOCCOCC(=O)N[C@H](CCC(N)=O)C(=O)N[C@@H](CCCNC(=N)N)C(=O)N1CCC[C@H]1CC(=O)N(C)[C@@H](CCCNC(=N)N)C(=O)N[C@@](C)(CC(C)C)C(=O)N[C@@H](CO)C(=O)N[C@@H](Cc1c[nH]cn1)C(=O)N[C@@H](CCCCN)C(=O)NCC(=O)N1[C@H](C(=O)N[C@@H](CCCC)C(=O)N2CCC[C@@]2(C)C(=O)N[C@@H](Cc2ccc(Cl)cc2)C(=O)O)C[C@@H]2CCCC[C@@H]21)C(=O)O
B9: Apelin polypeptide SEQ ID NO: 504 (peptide)
peptide: XXXQRPRLSHKGPXPF
modifications: {TDA}[AC4Abu][Aeea][Aeea]qR[aMePro][hArg][BLeu]SHKG[aMePro][Nle][aMePro][4-Cl-F]{COOH}

Biological target: T1, human APJ receptor
Assay: cell-based or functional assay

Binder	EC50 Human APJ Receptor (GTPγS assay) [nM]
B1	158
B2	9.18
Tridecanoyl-[γGlu][AEEA][AEEA]QR[NMeR][BLeu]SHKG[Oic][Nle]P[Phe(4-Cl)]-OH [Apelin polypeptide SEQ ID NO: 447]	9.66
Tridecanoyl-[γGlu][AEEA][AEEA][dQ]R[αMeP][Nle][BLeu]SHKG[Oic][Nle][αMeP][Phe(4-Cl)]-OH [Apelin polypeptide SEQ ID NO: 523]	25.6
B3	0.977
B4	10.3
B5	53.2
Tridecanoyl-[γGlu][AEEA][AEEA][dQ]R[αMeP][hArg][BLeu]SHKG[Oic][Nle][β3hP][Phe(4-Cl)]-OH [Apelin polypeptide SEQ ID NO: 556]	18
Tridecanoyl-[γGlu][AEEA][AEEA][dQ]R[αMeP][hArg][BLeu]SHKG[Oic][Nle][Phe(4-Cl)]-OH [Apelin polypeptide SEQ ID NO: 519]	9.74
B6	0.557
B7	0.16
Tridecanoyl-[γGlu][AEEA][AEEA][dQ]R[β3hP][hArg][BLeu]SHKG[Oic][Nle][Aib][Phe(4-Cl)]-OH [Apelin polypeptide SEQ ID NO: 522]	0.523
B8	2.23
Tridecanoyl-[AC4Abu][AEEA][AEEA]QR[αMeP][hArg][BLeu]SHKG[Oic][Nle]P[Phe(4-Cl)]-OH [Apelin polypeptide SEQ ID NO: 392]	0.584
Tridecanoyl-[γGlu][AEEA][AEEA][dQ]R[αMeP][hArg][BLeu]SHKG[Oic][Nle][αMeP][Phe(4-Cl)]-OH [Apelin polypeptide SEQ ID NO: 502]	0.456
Tridecanoyl-[γGlu][AEEA][AEEA][dQ]R[αMeP][hArg][BLeu]SHKG[Oic][Nle][Aib][Phe(4-Cl)]-OH [Apelin polypeptide SEQ ID NO: 505]	0.0707
Tridecanoyl-[γGlu][AEEA][AEEA][dQ]R[αMeP][hArg][BLeu]SHKG[Pip′][Nle][Phe(4-Cl)]-OH [Apelin polypeptide SEQ ID NO: 501]	10.9
B9	1.39

Biological target: T2, rat APJ receptor
Assay: cell-based or functional assay

Binder	EC50 Rat APJ Receptor (GTPγS assay) [nM]
B1	243
B2	56.1
Tridecanoyl-[γGlu][AEEA][AEEA]QR[NMeR][BLeu]SHKG[Oic][Nle]P[Phe(4-Cl)]-OH [Apelin polypeptide SEQ ID NO: 447]	14.8
Tridecanoyl-[γGlu][AEEA][AEEA][dQ]R[αMeP][Nle][BLeu]SHKG[Oic][Nle][αMeP][Phe(4-Cl)]-OH [Apelin polypeptide SEQ ID NO: 523]	71.9
B3	1.14
B4	35.9
B5	346
Tridecanoyl-[γGlu][AEEA][AEEA][dQ]R[αMeP][hArg][BLeu]SHKG[Oic][Nle][β3hP][Phe(4-Cl)]-OH [Apelin polypeptide SEQ ID NO: 556]	69.1
Tridecanoyl-[γGlu][AEEA][AEEA][dQ]R[αMeP][hArg][BLeu]SHKG[Oic][Nle][Phe(4-Cl)]-OH [Apelin polypeptide SEQ ID NO: 519]	44.7
B6	2.02
B7	2.12
Tridecanoyl-[γGlu][AEEA][AEEA][dQ]R[β3hP][hArg][BLeu]SHKG[Oic][Nle][Aib][Phe(4-Cl)]-OH [Apelin polypeptide SEQ ID NO: 522]	6.77
B8	2.01
Tridecanoyl-[AC4Abu][AEEA][AEEA]QR[αMeP][hArg][BLeu]SHKG[Oic][Nle]P[Phe(4-Cl)]-OH [Apelin polypeptide SEQ ID NO: 392]	0.856
Tridecanoyl-[γGlu][AEEA][AEEA][dQ]R[αMeP][hArg][BLeu]SHKG[Oic][Nle][αMeP][Phe(4-Cl)]-OH [Apelin polypeptide SEQ ID NO: 502]	4.81
Tridecanoyl-[γGlu][AEEA][AEEA][dQ]R[αMeP][hArg][BLeu]SHKG[Oic][Nle][Aib][Phe(4-Cl)]-OH [Apelin polypeptide SEQ ID NO: 505]	0.516
Tridecanoyl-[γGlu][AEEA][AEEA][dQ]R[αMeP][hArg][BLeu]SHKG[Pip′][Nle][Phe(4-Cl)]-OH [Apelin polypeptide SEQ ID NO: 501]	68.2
B9	23.1
